Assay results as given in US20250218531A1 (ABSCI, published 2025).

B1: Trastuzumab HCDR3 variant ARYDIGYYDMDK (Fab, V domains shown)
VH: EVQLVESGGGLVQPGGSLRLSCAASGFNIKDTYIHWVRQAPGKGLEWVARIYPTNGYTRYADSVKGRFTISADTSKNTAYLQMNSLRAEDTAVYYCARYDIGYYDMDKWGQGTLVTVSS
VL: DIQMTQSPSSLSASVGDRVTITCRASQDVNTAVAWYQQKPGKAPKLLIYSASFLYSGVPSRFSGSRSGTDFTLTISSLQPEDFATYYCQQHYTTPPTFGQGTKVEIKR
B2: Trastuzumab HCDR3 variant ARYDYGYYIYVS (Fab, V domains shown)
VH: EVQLVESGGGLVQPGGSLRLSCAASGFNIKDTYIHWVRQAPGKGLEWVARIYPTNGYTRYADSVKGRFTISADTSKNTAYLQMNSLRAEDTAVYYCARYDYGYYIYVSWGQGTLVTVSS
VL: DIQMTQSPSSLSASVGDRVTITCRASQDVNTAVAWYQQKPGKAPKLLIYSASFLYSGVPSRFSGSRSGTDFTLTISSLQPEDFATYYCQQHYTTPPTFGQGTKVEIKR
B3: Trastuzumab HCDR3 variant ARYFGGSYAYVY (Fab, V domains shown)
VH: EVQLVESGGGLVQPGGSLRLSCAASGFNIKDTYIHWVRQAPGKGLEWVARIYPTNGYTRYADSVKGRFTISADTSKNTAYLQMNSLRAEDTAVYYCARYFGGSYAYVYWGQGTLVTVSS
VL: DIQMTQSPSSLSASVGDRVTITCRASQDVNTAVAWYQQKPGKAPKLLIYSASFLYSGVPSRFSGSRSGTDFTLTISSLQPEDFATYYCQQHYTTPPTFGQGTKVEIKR
B4: Trastuzumab HCDR3 variant ARYGAYFYAMDA (Fab, V domains shown)
VH: EVQLVESGGGLVQPGGSLRLSCAASGFNIKDTYIHWVRQAPGKGLEWVARIYPTNGYTRYADSVKGRFTISADTSKNTAYLQMNSLRAEDTAVYYCARYGAYFYAMDAWGQGTLVTVSS
VL: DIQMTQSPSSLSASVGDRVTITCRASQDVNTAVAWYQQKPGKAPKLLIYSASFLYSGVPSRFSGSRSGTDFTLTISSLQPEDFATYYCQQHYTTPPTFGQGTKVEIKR
B5: Trastuzumab HCDR3 variant ARYGGFYYYFDY (Fab, V domains shown)
VH: EVQLVESGGGLVQPGGSLRLSCAASGFNIKDTYIHWVRQAPGKGLEWVARIYPTNGYTRYADSVKGRFTISADTSKNTAYLQMNSLRAEDTAVYYCARYGGFYYYFDYWGQGTLVTVSS
VL: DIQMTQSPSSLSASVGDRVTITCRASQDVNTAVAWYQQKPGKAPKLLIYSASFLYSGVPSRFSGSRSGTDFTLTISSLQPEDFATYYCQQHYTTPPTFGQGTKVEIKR
B6: Trastuzumab HCDR3 variant ARYGGGFYAMDY (Fab, V domains shown)
VH: EVQLVESGGGLVQPGGSLRLSCAASGFNIKDTYIHWVRQAPGKGLEWVARIYPTNGYTRYADSVKGRFTISADTSKNTAYLQMNSLRAEDTAVYYCARYGGGFYAMDYWGQGTLVTVSS
VL: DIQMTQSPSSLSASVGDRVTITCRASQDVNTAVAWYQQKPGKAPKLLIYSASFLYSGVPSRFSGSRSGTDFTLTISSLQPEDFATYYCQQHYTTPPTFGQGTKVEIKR
B7: Trastuzumab HCDR3 variant ARYGGGYWYFDY (Fab, V domains shown)
VH: EVQLVESGGGLVQPGGSLRLSCAASGFNIKDTYIHWVRQAPGKGLEWVARIYPTNGYTRYADSVKGRFTISADTSKNTAYLQMNSLRAEDTAVYYCARYGGGYWYFDYWGQGTLVTVSS
VL: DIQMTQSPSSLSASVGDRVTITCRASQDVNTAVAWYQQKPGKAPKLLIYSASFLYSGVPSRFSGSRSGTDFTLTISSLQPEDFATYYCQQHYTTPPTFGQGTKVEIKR
B8: Trastuzumab HCDR3 variant ARYGGGYYYYDY (Fab, V domains shown)
VH: EVQLVESGGGLVQPGGSLRLSCAASGFNIKDTYIHWVRQAPGKGLEWVARIYPTNGYTRYADSVKGRFTISADTSKNTAYLQMNSLRAEDTAVYYCARYGGGYYYYDYWGQGTLVTVSS
VL: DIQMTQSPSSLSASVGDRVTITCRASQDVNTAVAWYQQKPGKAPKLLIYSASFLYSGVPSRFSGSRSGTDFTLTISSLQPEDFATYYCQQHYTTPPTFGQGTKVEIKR
B9: Trastuzumab HCDR3 variant ARYGGYYYYMDY (Fab, V domains shown)
VH: EVQLVESGGGLVQPGGSLRLSCAASGFNIKDTYIHWVRQAPGKGLEWVARIYPTNGYTRYADSVKGRFTISADTSKNTAYLQMNSLRAEDTAVYYCARYGGYYYYMDYWGQGTLVTVSS
VL: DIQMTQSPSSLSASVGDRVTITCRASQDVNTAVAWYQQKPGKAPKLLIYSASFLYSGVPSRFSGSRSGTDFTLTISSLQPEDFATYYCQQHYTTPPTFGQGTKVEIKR
B10: Trastuzumab HCDR3 variant ARYGLGYYYFDY (Fab, V domains shown)
VH: EVQLVESGGGLVQPGGSLRLSCAASGFNIKDTYIHWVRQAPGKGLEWVARIYPTNGYTRYADSVKGRFTISADTSKNTAYLQMNSLRAEDTAVYYCARYGLGYYYFDYWGQGTLVTVSS
VL: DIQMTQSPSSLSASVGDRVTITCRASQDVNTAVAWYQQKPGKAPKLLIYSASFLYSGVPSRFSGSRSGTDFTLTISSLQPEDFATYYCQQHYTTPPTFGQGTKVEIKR
B11: Trastuzumab HCDR3 variant ARYGLGYYYMDY (Fab, V domains shown)
VH: EVQLVESGGGLVQPGGSLRLSCAASGFNIKDTYIHWVRQAPGKGLEWVARIYPTNGYTRYADSVKGRFTISADTSKNTAYLQMNSLRAEDTAVYYCARYGLGYYYMDYWGQGTLVTVSS
VL: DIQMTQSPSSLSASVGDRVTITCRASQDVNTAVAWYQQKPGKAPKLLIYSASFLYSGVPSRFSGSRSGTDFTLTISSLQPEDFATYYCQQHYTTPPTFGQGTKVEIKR
B12: Trastuzumab HCDR3 variant ARYGLYYYYFDY (Fab, V domains shown)
VH: EVQLVESGGGLVQPGGSLRLSCAASGFNIKDTYIHWVRQAPGKGLEWVARIYPTNGYTRYADSVKGRFTISADTSKNTAYLQMNSLRAEDTAVYYCARYGLYYYYFDYWGQGTLVTVSS
VL: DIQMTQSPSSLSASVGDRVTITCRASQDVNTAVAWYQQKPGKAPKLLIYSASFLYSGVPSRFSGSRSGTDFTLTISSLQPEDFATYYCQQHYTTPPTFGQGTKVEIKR
B13: Trastuzumab HCDR3 variant ARYGRGYYYFDY (Fab, V domains shown)
VH: EVQLVESGGGLVQPGGSLRLSCAASGFNIKDTYIHWVRQAPGKGLEWVARIYPTNGYTRYADSVKGRFTISADTSKNTAYLQMNSLRAEDTAVYYCARYGRGYYYFDYWGQGTLVTVSS
VL: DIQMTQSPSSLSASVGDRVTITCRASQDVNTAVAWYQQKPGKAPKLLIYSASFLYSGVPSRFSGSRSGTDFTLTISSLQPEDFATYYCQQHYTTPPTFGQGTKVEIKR
B14: Trastuzumab HCDR3 variant ARYGSYFYYMDY (Fab, V domains shown)
VH: EVQLVESGGGLVQPGGSLRLSCAASGFNIKDTYIHWVRQAPGKGLEWVARIYPTNGYTRYADSVKGRFTISADTSKNTAYLQMNSLRAEDTAVYYCARYGSYFYYMDYWGQGTLVTVSS
VL: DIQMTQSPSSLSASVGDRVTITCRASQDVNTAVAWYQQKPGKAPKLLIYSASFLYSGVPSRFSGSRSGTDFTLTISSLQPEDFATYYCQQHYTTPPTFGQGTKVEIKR
B15: Trastuzumab HCDR3 variant ARYGSYNYYFGD (Fab, V domains shown)
VH: EVQLVESGGGLVQPGGSLRLSCAASGFNIKDTYIHWVRQAPGKGLEWVARIYPTNGYTRYADSVKGRFTISADTSKNTAYLQMNSLRAEDTAVYYCARYGSYNYYFGDWGQGTLVTVSS
VL: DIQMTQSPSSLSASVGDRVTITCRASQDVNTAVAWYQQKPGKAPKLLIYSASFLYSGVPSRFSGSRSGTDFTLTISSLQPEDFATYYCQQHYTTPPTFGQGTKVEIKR
B16: Trastuzumab HCDR3 variant ARYGTGNYAMDY (Fab, V domains shown)
VH: EVQLVESGGGLVQPGGSLRLSCAASGFNIKDTYIHWVRQAPGKGLEWVARIYPTNGYTRYADSVKGRFTISADTSKNTAYLQMNSLRAEDTAVYYCARYGTGNYAMDYWGQGTLVTVSS
VL: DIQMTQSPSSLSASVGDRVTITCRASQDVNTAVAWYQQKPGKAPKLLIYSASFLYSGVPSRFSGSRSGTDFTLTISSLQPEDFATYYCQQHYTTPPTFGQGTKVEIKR
B17: Trastuzumab HCDR3 variant ARYGTIYFHFDY (Fab, V domains shown)
VH: EVQLVESGGGLVQPGGSLRLSCAASGFNIKDTYIHWVRQAPGKGLEWVARIYPTNGYTRYADSVKGRFTISADTSKNTAYLQMNSLRAEDTAVYYCARYGTIYFHFDYWGQGTLVTVSS
VL: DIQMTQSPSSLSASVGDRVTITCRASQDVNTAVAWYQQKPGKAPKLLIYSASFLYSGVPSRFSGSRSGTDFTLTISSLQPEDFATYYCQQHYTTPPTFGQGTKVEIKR
B18: Trastuzumab HCDR3 variant ARYGVVRYDFAY (Fab, V domains shown)
VH: EVQLVESGGGLVQPGGSLRLSCAASGFNIKDTYIHWVRQAPGKGLEWVARIYPTNGYTRYADSVKGRFTISADTSKNTAYLQMNSLRAEDTAVYYCARYGVVRYDFAYWGQGTLVTVSS
VL: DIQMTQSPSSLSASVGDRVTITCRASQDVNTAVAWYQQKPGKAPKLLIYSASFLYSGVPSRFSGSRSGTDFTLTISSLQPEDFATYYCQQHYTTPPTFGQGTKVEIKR
B19: Trastuzumab HCDR3 variant ARYGWGYYYFDY (Fab, V domains shown)
VH: EVQLVESGGGLVQPGGSLRLSCAASGFNIKDTYIHWVRQAPGKGLEWVARIYPTNGYTRYADSVKGRFTISADTSKNTAYLQMNSLRAEDTAVYYCARYGWGYYYFDYWGQGTLVTVSS
VL: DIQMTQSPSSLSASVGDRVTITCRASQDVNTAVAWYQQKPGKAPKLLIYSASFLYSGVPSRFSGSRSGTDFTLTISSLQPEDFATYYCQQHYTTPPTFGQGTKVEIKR
B20: Trastuzumab HCDR3 variant ARYGYDGYYFAY (Fab, V domains shown)
VH: EVQLVESGGGLVQPGGSLRLSCAASGFNIKDTYIHWVRQAPGKGLEWVARIYPTNGYTRYADSVKGRFTISADTSKNTAYLQMNSLRAEDTAVYYCARYGYDGYYFAYWGQGTLVTVSS
VL: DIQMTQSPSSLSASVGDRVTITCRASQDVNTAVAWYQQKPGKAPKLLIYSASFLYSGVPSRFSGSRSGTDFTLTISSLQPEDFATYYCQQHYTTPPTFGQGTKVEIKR
B21: Trastuzumab HCDR3 variant ARYGYGYFYMDY (Fab, V domains shown)
VH: EVQLVESGGGLVQPGGSLRLSCAASGFNIKDTYIHWVRQAPGKGLEWVARIYPTNGYTRYADSVKGRFTISADTSKNTAYLQMNSLRAEDTAVYYCARYGYGYFYMDYWGQGTLVTVSS
VL: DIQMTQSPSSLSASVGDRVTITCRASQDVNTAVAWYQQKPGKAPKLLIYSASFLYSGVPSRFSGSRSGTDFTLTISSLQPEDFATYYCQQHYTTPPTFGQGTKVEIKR
B22: Trastuzumab HCDR3 variant ARYGYGYYVMDY (Fab, V domains shown)
VH: EVQLVESGGGLVQPGGSLRLSCAASGFNIKDTYIHWVRQAPGKGLEWVARIYPTNGYTRYADSVKGRFTISADTSKNTAYLQMNSLRAEDTAVYYCARYGYGYYVMDYWGQGTLVTVSS
VL: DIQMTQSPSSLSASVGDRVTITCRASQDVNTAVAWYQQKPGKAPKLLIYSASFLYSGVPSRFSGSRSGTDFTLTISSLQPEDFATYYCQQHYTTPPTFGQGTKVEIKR
B23: Trastuzumab HCDR3 variant ARYGYGYYYMDY (Fab, V domains shown)
VH: EVQLVESGGGLVQPGGSLRLSCAASGFNIKDTYIHWVRQAPGKGLEWVARIYPTNGYTRYADSVKGRFTISADTSKNTAYLQMNSLRAEDTAVYYCARYGYGYYYMDYWGQGTLVTVSS
VL: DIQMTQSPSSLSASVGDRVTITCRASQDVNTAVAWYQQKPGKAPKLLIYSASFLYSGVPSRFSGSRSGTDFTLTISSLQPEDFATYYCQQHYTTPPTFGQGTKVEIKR
B24: Trastuzumab HCDR3 variant ARYGYYGYYMDY (Fab, V domains shown)
VH: EVQLVESGGGLVQPGGSLRLSCAASGFNIKDTYIHWVRQAPGKGLEWVARIYPTNGYTRYADSVKGRFTISADTSKNTAYLQMNSLRAEDTAVYYCARYGYYGYYMDYWGQGTLVTVSS
VL: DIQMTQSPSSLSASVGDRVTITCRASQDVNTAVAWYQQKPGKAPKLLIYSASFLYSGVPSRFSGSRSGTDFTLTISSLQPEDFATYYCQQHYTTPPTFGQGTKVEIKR
B25: Trastuzumab HCDR3 variant ARYGYYLYAMDY (Fab, V domains shown)
VH: EVQLVESGGGLVQPGGSLRLSCAASGFNIKDTYIHWVRQAPGKGLEWVARIYPTNGYTRYADSVKGRFTISADTSKNTAYLQMNSLRAEDTAVYYCARYGYYLYAMDYWGQGTLVTVSS
VL: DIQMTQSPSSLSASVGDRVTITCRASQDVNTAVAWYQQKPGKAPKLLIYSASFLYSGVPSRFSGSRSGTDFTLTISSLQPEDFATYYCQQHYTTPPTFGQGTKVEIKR
B26: Trastuzumab HCDR3 variant ARYGYYSYAMDY (Fab, V domains shown)
VH: EVQLVESGGGLVQPGGSLRLSCAASGFNIKDTYIHWVRQAPGKGLEWVARIYPTNGYTRYADSVKGRFTISADTSKNTAYLQMNSLRAEDTAVYYCARYGYYSYAMDYWGQGTLVTVSS
VL: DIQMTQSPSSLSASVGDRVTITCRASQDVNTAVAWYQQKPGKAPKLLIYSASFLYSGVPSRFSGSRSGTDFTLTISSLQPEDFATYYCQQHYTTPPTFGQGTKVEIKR
B27: Trastuzumab HCDR3 variant ARYPGYYYYFDY (Fab, V domains shown)
VH: EVQLVESGGGLVQPGGSLRLSCAASGFNIKDTYIHWVRQAPGKGLEWVARIYPTNGYTRYADSVKGRFTISADTSKNTAYLQMNSLRAEDTAVYYCARYPGYYYYFDYWGQGTLVTVSS
VL: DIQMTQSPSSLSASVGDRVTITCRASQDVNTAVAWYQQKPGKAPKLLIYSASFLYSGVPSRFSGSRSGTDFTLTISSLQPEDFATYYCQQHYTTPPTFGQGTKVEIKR
B28: Trastuzumab HCDR3 variant ARYPPGYYIMDF (Fab, V domains shown)
VH: EVQLVESGGGLVQPGGSLRLSCAASGFNIKDTYIHWVRQAPGKGLEWVARIYPTNGYTRYADSVKGRFTISADTSKNTAYLQMNSLRAEDTAVYYCARYPPGYYIMDFWGQGTLVTVSS
VL: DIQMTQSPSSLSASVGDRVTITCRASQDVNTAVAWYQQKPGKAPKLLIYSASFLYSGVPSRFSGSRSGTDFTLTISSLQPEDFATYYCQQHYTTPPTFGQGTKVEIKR
B29: Trastuzumab HCDR3 variant ARYPSVVYAFGI (Fab, V domains shown)
VH: EVQLVESGGGLVQPGGSLRLSCAASGFNIKDTYIHWVRQAPGKGLEWVARIYPTNGYTRYADSVKGRFTISADTSKNTAYLQMNSLRAEDTAVYYCARYPSVVYAFGIWGQGTLVTVSS
VL: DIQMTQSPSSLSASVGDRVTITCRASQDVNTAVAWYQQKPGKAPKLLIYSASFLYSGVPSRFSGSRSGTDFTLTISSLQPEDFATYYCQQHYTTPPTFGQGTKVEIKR
B30: Trastuzumab HCDR3 variant ARYRHWYYDYDY (Fab, V domains shown)
VH: EVQLVESGGGLVQPGGSLRLSCAASGFNIKDTYIHWVRQAPGKGLEWVARIYPTNGYTRYADSVKGRFTISADTSKNTAYLQMNSLRAEDTAVYYCARYRHWYYDYDYWGQGTLVTVSS
VL: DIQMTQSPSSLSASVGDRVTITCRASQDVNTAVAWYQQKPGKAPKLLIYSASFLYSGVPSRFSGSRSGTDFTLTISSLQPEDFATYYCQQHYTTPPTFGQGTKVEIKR
B31: Trastuzumab HCDR3 variant ARYTFGAYYYSD (Fab, V domains shown)
VH: EVQLVESGGGLVQPGGSLRLSCAASGFNIKDTYIHWVRQAPGKGLEWVARIYPTNGYTRYADSVKGRFTISADTSKNTAYLQMNSLRAEDTAVYYCARYTFGAYYYSDWGQGTLVTVSS
VL: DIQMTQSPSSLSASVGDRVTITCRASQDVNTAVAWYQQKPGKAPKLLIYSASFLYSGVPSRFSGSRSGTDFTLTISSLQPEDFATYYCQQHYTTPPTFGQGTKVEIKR
B32: Trastuzumab HCDR3 variant ARYWMGVYEFDY (Fab, V domains shown)
VH: EVQLVESGGGLVQPGGSLRLSCAASGFNIKDTYIHWVRQAPGKGLEWVARIYPTNGYTRYADSVKGRFTISADTSKNTAYLQMNSLRAEDTAVYYCARYWMGVYEFDYWGQGTLVTVSS
VL: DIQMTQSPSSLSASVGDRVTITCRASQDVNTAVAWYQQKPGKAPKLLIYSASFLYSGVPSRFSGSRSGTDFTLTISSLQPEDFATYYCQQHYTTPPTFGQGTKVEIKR

What follows are binders tested against T1, HER2 (human epidermal growth factor receptor 2) (human, UniProt P04626 23-629) (assay: SPR).
T1 construct: also called Antigen: HER2

For B1, the Kd was 27 nM.
B4 was tested, and the Kd was 18.6 nM.
Binder B6 has a Kd of 22.4 nM.
Work on B11 yielded a Kd of 10.5 nM.
Binder B12 has a Kd of 15.5 nM.
B15 showed a Kd of 13.6 nM.
B17 showed a Kd of 23.9 nM.
Work on B18 yielded a Kd of 20.5 nM.
Work on B19 yielded a Kd of 14.7 nM.
B23 showed a Kd of 12.2 nM.
B25 gave a Kd of 10.1 nM.
B27 showed a Kd of 17.9 nM.
B28 gave a Kd of 23.5 nM.
For B29, the Kd was 22.3 nM.
Binder B31 has a Kd of 10.9 nM.
Work on B32 yielded a Kd of 21.7 nM.

Point of comparison: B6, “log(KD (M))” value -7.65. Against it:
- B1 — within 0.2 log units, -7.57
- B2 — lower, -8.02
- B3 — lower, -7.95
- B4 — within 0.2 log units, -7.73
- B5 — lower, -8.21
- B7 — within 0.2 log units, -7.63
- B8 — lower, -8.04
- B9 — within 0.2 log units, -7.79
- B10 — within 0.2 log units, -7.8
- B11 — lower, -7.98
- B12 — within 0.2 log units, -7.81
- B13 — within 0.2 log units, -7.57
- B14 — lower, -8.19
- B15 — lower, -7.87
- B16 — within 0.2 log units, -7.58
- B17 — within 0.2 log units, -7.62
- B18 — within 0.2 log units, -7.69
- B19 — within 0.2 log units, -7.83
- B20 — the same, -7.65
- B21 — within 0.2 log units, -7.66
- B22 — lower, -8.06
- B23 — lower, -7.91
- B24 — within 0.2 log units, -7.63
- B25 — lower, -7.99
- B26 — lower, -7.99
- B27 — within 0.2 log units, -7.75
- B28 — within 0.2 log units, -7.63
- B29 — the same, -7.65
- B30 — lower, -8.21
- B31 — lower, -7.96
- B32 — within 0.2 log units, -7.66

Point of comparison: B7, Kd 23.4 nM. Against it:
- B2 — 2.5-fold lower, 9.49 nM
- B3 — 2.1-fold lower, 11.2 nM
- B5 — 3.8-fold lower, 6.17 nM
- B8 — 2.6-fold lower, 9.11 nM
- B9 — within 1.5-fold, 16.3 nM
- B10 — within 1.5-fold, 15.7 nM
- B13 — within 1.5-fold, 26.8 nM
- B14 — 3.6-fold lower, 6.53 nM
- B16 — within 1.5-fold, 26.3 nM
- B20 — within 1.5-fold, 22.2 nM
- B21 — within 1.5-fold, 21.9 nM
- B22 — 2.7-fold lower, 8.65 nM
- B24 — within 1.5-fold, 23.3 nM
- B26 — 2.3-fold lower, 10.2 nM
- B30 — 3.8-fold lower, 6.15 nM
